# Measurements published in patent US20240377400A1, “METHODS FOR TREATING A SUBTYPE OF COLORECTAL CANCER” (Cornell University, priority 2021, published 2024).
# “Also recorded” adds a separate entry of the source.
# B1: PEGPH20: a PEGylated version of human recombinant PH20 hyaluronidase; clinical-grade pegylated hyaluronidase (Halozyme Therapeutics) (protein, UniProt P38567 36-490, looked up)
# Hyaluronidase PH-20: LNFRAPPVIPNVPFLWAWNAPSEFCLGKFDEPLDMSLFSFIGSPRINATGQGVTIFYVDRLGYYPYIDSITGVTVNGGIPQKISLQDHLDKAKKDITFYMPVDNLGMAVIDWEEWRPTWARNWKPKDVYKNRSIELVQQQNVQLSLTEATEKAKQEFEKAGKDFLVETIKLGKLLRPNHLWGYYLFPDCYNHHYKKPGYNGSCFNVEIKRNDDLSWLWNESTALYPSIYLNTQQSPVAATLYVRNRVREAIRVSKIPDAKSPLPVFAYTRIVFTDQVLKFLSQDELVYTFGETVALGASGIVIWGTLSIMRSMKSCLLLDNYMETILNPYIINVTLAAKMCSQVLCQEQGVCIRKNWNSSDYLHLNPDNFAIQLEKGGKFTVRGKPTLEDLEQFSEKFYCSCYSTLSCKEKADVKDTDAVDVCIADGVCIDAFLKPPMETEEPQIFYNASPSTLS
# modifications: PEGylated
# Experiments:
# pancreatic cancer = pancreatic cancer patients; cited from earlier work
# [1] = system: Prkci^fl/flPrkcz^fl/fl; Villin-Cre tumors; test: scRNAseq, CellphoneDB and multiplex staining of Prkci^fl/flPrkcz^fl/fl; Villin-Cre tumors treated with PEGPH20; type: in vivo, mouse
# Description: FIG. 10A illustrates experimental design and workflow of scRNAseq. Tumors from Veh (n=5) and PEGPH20-treated mice (n=3) were dissected and digested into single-cell suspensions for sequencing.
# Primary antibody dilutions were optimized individually at H220 retrieval using the Leica BondRx Automated IHC stainer and evaluated by a board-certified pathologist for specificity. Multiplexed staining was optimized and then performed using the Automated Opal 7-Color IHC Kit (NEL821001KT) from Akoya Biosciences. A library for spectral separation was generated by staining control tissue with each opal fluor conjugated to CD20. Slides were imaged in the Vectra Polaris Automated Quantitative Pathology Multispectral Imaging System. Exposure times were maximized under the constraint that no pixel saturates the detector (Patel and Rodig, 2020; Patel et al., 2019).
# Tumors were minced thoroughly and digested by 0.5 mg/ml Liberase TH (Sigma) for 30 minutes at 37° C. Dead cells were removed by Annexin V (STEMCELL technologies). scRNAseq libraries were generated using the Chromium Single Cell 30 Reagent Kit v2 (10× Genomics). Cells were loaded onto the 10× Chromium Single Cell Platform (10× Genomics) at a concentration of 2,000 cells per μl (Single Cell 3′ library and Gel Bead Kit v.2) as described in the manufacturer's protocol (10× User Guide, Revision B). Generation of gel beads in emulsion (GEMs), barcoding, GEM-RT clean-up, complementary DNA amplification and library construction were all performed as per the manufacturer's protocol. Individual sample quality was checked using a Bioanalyzer Tapestation (Agilent). Qubit was used for library quantification before pooling. The final library pool was sequenced on an Illumina NovaSeq6000 instrument using a S1 flow cell. Average cell recovery for Prkci^f/fPrkcz^f/f; Villin-Cre tumors was […] with a total of 209,907 cells captured at a mean depth of 14,568 read per cell and 895 mean genes per cell.
# For scRNA-seq, raw sequence reads were quality-checked using FastQC software. The Cell Ranger version 2.1.1 software suite from 10× Genomics (https://support.10× genomics.com/single-cell-gene-expression/software/downloads/latest) was used to process, align, and summarize unique molecular identifier (UMI) counts against the mouse mm10 assembly reference genome analysis set, obtained from the University of California Santa Cruz (UCSC). Raw, unfiltered count matrices were imported into R for further processing. Raw UMI count matrices were filtered using the Seurat v 3.0 R package (Butler et al., 2018) to remove: barcodes with very low (less than 200, empty wells) and very high (more than 3000, probably doublets) total UMI counts; matrices for which a high percentage of UMIs originated from mitochondrial features (more than 12%); and matrices for which fewer than 250 genes were expressed. Subsequently, the data were normalized using the SCTransform function, regressing out the following variables: total number of UMIs per cell and percentage of mitochondrial UMIs. Following normalization, the principal components were computed. The top principal components were identified using the ElbowPlot function and used for the UMAP dimensionality reduction. For clustering, Seurat was used in combination with Harmony software (Korsunsky et al., 2019) to correct the potential effects of technical differences between sequencing batches. The RunHarmonyo, RunUMAP( ), FindNeighbors( ), and FindClusters( ) functions were run for clustering and the percentage of mitochondrial features was considered to be a source of unwanted variation and was regressed out using the Seurat package. […] For the differential gene expression analysis, the FindMarker( ) function with default parameters was run for comparison between populations. The cell groups were annotated based on the marker gene analysis and canonical markers from the literature. […]
# [2] = scRNAseq tumor epithelial cells
molecule,measurement,setting,value
B1,duration of response or progression-free or overall survival,pancreatic cancer,no improvement
same,response rate in the experimental arm,pancreatic cancer,higher
same,TGFβ signals provided by myeloid cells and CD4+ Tregs,[1]; CellphoneDB,reduced
same,communications between TRSC and trophocytes,[1]; CellphoneDB,induced a high number
same,interaction between Spp1-Ptger4/Cd44 in fibroblasts and Spp1 interactions between telocytes and CD4+ Tregs,[1]; CellphoneDB,eliminates
same,interactions between TFSCs and telocytes,[1]; CellphoneDB,switching off
same,"secretion of Ccl27a in TRSCs, Ccl28 in TcTAs and residual TFSCs, Ccl25 in TcTAs and TFSCs",[1]; CellphoneDB,increased
same,secretion of growth signals from telocytes to myeloid cells and CD4+ Tregs,[1]; CellphoneDB,repressed
same,Rspo1/3 in trophocytes,"[1]; CellphoneDB, interact with Lgr5 in TRSC",enriched
same,presence of TFSCs (ANXA10+ staining),[1]; IHC,strongly reduced
same,presence of TRSCs (CLU+ staining),[1]; IHC,not reduced
same,ANXA10+/Alcian Blue and ANXA10+/MUC2+ TGCs,[1]; IHC and multiplex imaging,reduced
same,flow from TcTA to TFSC,[1]; RNA velocity trajectory analysis,total disruption
same,myeloid cells and CD4+ Tregs in tumors,[1]; VECTRA multiplex imaging,concomitant reduction
same,"B, plasma, and CD8+ T cells infiltrating the tumors","[1]; VECTRA multiplex imaging, CD138 staining",allows CD8+ T cell infiltration; also recorded: strong recruitment
same,"collagens, matrix metalloproteinases, and signatures related to matrix remodeling in the intermediate fibroblasts",[1]; differential gene expression,substantial reduction
same,vessel normalization signature,[1]; endothelial compartment,increased
same,"angiogenesis, glycolysis, and hypoxia signatures",[1]; endothelium compartment,reduced
same,signatures related to interferon activation,[1]; endothelium compartment,increased
same,trophocyte levels (PDGRA−/CD31−/CD34+),"[1]; immunofluorescence, mainly at the crypt-bottom positions",strongly increased
same,PDGFRA+/NRG1+ fibroblasts at the luminal border,[1]; multiplex immunofluorescence,significantly reduced
same,"expression of several ICIs, including Ctla4, in CD4+ Tregs",[1]; scRNAseq,higher expression
same,Cd47 immune checkpoint inhibitor expression,[1]; scRNAseq / CellphoneDB,clear increase
same,"signatures corresponding to CD8+ T cells exhaustion, stem-like, and expansion",[1]; scRNAseq CD8+ T cells,enrichment
same,CD4+ Treg cells,[1]; scRNAseq T cells,reduced
same,CD8+/Treg ratio,[1]; scRNAseq T cells,increased
same,proportion of CD8+ Trm and CD8+ Tex cells,[1]; scRNAseq T cells,increased
same,proportion of tip cells and postcapillary and immature endothelial cells,[1]; scRNAseq endothelial compartment,reduced
same,proportion of intermediate fibroblast,[1]; scRNAseq fibroblasts,not affected
same,trophocytes,[1]; scRNAseq fibroblasts,concomitant accumulation
same,telocyte population,"[1]; scRNAseq fibroblasts, HA degradation in vivo",virtually eliminated
same,proportion of TGCs,[1]; scRNAseq goblet cells,strongly reduced
same,"levels of myeloid cell types (TAN, TAM, IM)",[1]; scRNAseq immune cells,reduced
same,proportion of T and B cells,[1]; scRNAseq immune cells,increased
same,proportion of TFSCs,[1]; [2],clear reduction
same,proportion of TRSCs in the persistent tumor cell population,[1]; [2],relative enrichment
same,proportion of TcTAs,[1]; [2],limited proportional reduction
same,vessel disorganization signature,[1]; whole endothelial compartment,reversed
